Our source for the fold amount pulled down relative to Sas-4-N values is publication PMC3411905.

The labels stand for the following.
B1: Cnn (natural protein)
chain: MNSNRTSSSHNSRNLKILNASFDVPRPPGGGNSPLPSQGRSVRELEEQMSALRKENFNLKLRIYFLEEGQPGARADSSTESLSKQLIDAKIEIATLRKTVDVKMELLKDAARAISHHEELQRKADIDSQAIIDELQEQIHAYQMAESGGQPVENIAKTRKMLRLESEVQRLEEELVNIEARNVAARNELEFMLAERLESLTACEGKIQELAIKNSELVERLEKETASAESSNEAIDSLKVELEACRKENQDLVTSIRTLKHDMKRQVRSMKEAANTMDVQRQSILLLEATIKRKEKSCGSMQKNVLNYEALIAKLNAELETMRQQNVYFRELSENLQQKEVRQLDRGVAIVQPMRMTADAGRFVWQSGTIVAQEPLPLERQSAAATSNVSVSAVRLSSGPPPDQTYPVNGHDRAKYGLLQLFAAKLDWISAVPLALGHLALKIILLAMRLHSCLQNVHIPLRANRDLGAQLADKICELQEAQEKLKERERIHEQACRTIQKLMQKLSSQEKEIKKLNQENEQSANKENDCAKTVISPSSSGRSMSDNEASSQEMSTNLRVRYELKINEQEEKIKQLQTEVKKKTANLQNLVNKELWEKNREVERLTKLLANQQKTLPQISEESAGEADLQQSFTEAEYMRALERNKLLQRKVDVLFQRLADDQQNSAVIGQLRLELQQARTEVETADKWRLECVDVCSVLTNRLEELAGFLNSLLKHKDVLGVLAADRRNAMRKAVDRSLDLSKSLNMTLNITATSLADQSLAQLCNLSEILYTEGDASHKTFNSHEELHAATSMAPTVENLKAENKALKKELEKRRSSEGQRKERRSLPLPSQQFDNQSESEAWSEPDRKVSLARIGLDETSNSLAAPEQAISESESEGRTCATRQDRNRNSERIAQLEEQIAQKDERMLNVQCQMVELDNRYKQEQLRCLDITQQLEQLRAINEALTADLHAIGSHEEERMVELQRQLELKNQQIDQLKLAHSTLTADSQITEMELQALQQQMQEIEQLHADSVETLQSQLQKLKLDAVQQLEEHERLHREALERDWVALTTYQEQAQQLLELQRSLDYHQENEKELKQTLVENELATRALKKQLDESTLQASKAVMERTKAYNDKLQLEKRSEELRLQLEALKEEHQKLLQKRSNSSDVSQSGYTSEEVAVPMGPPSGQATTCKQAAAAVLGQRVNTSSPDLGIESDAGRISSVEVSNAQRAMLKTVEMKTEGSASPKAKSEESTSPDSKSNVATGAATVHDCAKVDLENAELRRKLIRTKRAFEDTYEKLRMANKAKAQVEKDIKNQILKTHNVLRNVRSNMENEL

This test addresses Sas-4-NΔT GST (Drosophila) (UniProt Q9VI72). The test is described as follows: pull-down.
Consider Grip128 (natural protein), for which the fold amount pulled down relative to Sas-4-N was 3 times.

Molecule “Asl (from UniProt Q9VNE4 1-994) (natural protein)” returned a fold amount pulled down relative to Sas-4-N of 3 times.

The molecule “γ-tubulin (from UniProt P23257 1-475) (natural protein)” registered a fold amount pulled down relative to Sas-4-N of 3 times.

The molecule B1 showed a fold amount pulled down relative to Sas-4-N of 3 times.
